Consider 1 substance from patent publication EP4768503A1.

This assay deals with amyloid precursor protein (APP) on HEK293-APP stable transfected cells (UniProt P05067). Put plainly: flow cytometry on HEK293-APP cells, four-parameter fit of MFI.
amyloid precursor protein (APP) on HEK293-APP stable transfected cells, sequence (P05067 18-770): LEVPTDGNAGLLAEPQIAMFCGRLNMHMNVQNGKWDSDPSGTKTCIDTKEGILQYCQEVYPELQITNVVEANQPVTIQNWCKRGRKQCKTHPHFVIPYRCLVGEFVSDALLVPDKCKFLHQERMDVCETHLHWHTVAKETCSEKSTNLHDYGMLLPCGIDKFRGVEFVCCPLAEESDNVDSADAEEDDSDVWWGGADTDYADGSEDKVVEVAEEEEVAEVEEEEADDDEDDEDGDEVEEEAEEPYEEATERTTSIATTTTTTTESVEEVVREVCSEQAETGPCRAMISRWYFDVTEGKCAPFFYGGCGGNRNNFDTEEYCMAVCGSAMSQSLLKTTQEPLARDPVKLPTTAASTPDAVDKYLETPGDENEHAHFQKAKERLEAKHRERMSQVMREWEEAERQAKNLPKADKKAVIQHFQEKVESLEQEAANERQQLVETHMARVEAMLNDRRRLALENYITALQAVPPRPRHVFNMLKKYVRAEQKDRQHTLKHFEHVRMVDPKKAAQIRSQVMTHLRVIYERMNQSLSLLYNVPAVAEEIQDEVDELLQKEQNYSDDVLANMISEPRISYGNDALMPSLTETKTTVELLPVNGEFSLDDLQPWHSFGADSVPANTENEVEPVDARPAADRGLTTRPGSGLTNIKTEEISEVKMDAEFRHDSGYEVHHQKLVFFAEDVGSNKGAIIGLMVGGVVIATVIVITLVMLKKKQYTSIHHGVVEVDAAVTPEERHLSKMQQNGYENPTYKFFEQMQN

As to Lecanemab (antibody), the 50% effective concentration (EC50) was found to be 6.83 nM.
